Measured values from US20050170504.

Molecular target: TmHU (HU protein) (Thermotoga maritima) (UniProt P36206)
Experiment: SPR
Details: transition midpoint of Hill curve, 50 mM sodium phosphate pH 7.5, 100 mM NaCl

Sequence of UniProt P36206 (P36206 other isoform, or with tags, fused parts or gaps): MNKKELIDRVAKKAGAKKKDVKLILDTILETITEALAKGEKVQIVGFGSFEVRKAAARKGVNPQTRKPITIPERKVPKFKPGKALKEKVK

Row | Substance | Kd (Hill coefficient 1.3) [nM] | Kd (Hill coefficient 7.6) [nM]
1 | 23 bp dsDNA fragment | 73 | –
2 | 56 bp dsDNA fragment | – | 73
